The target in assay [1] is T1, mSlo1/β4(N123K) channel (mouse | human, UniProt Q08460 1-1209; Q86W47 1-210, N123K). Nature of the assay: cell-based or functional assay.
Assay [2] deals with T2, mSlo1/β4(N123E) channel (mouse | human, UniProt Q08460 1-1209; Q86W47 1-210, N123E). Nature of the assay: cell-based or functional assay.
Assay [3] deals with T3, mSlo1/β4 channel (mouse | human, UniProt Q08460 1-1209; Q86W47 1-210). Nature of the assay: cell-based or functional assay.
For assay [4], the target named is T4, mSlo1/β4(N123D) channel (mouse | human, UniProt Q08460 1-1209; Q86W47 1-210, N123D). As to the kind of experiment: cell-based or functional assay.
T4 sequence (Q08460 whole entry, stated change not applied, one chain of several): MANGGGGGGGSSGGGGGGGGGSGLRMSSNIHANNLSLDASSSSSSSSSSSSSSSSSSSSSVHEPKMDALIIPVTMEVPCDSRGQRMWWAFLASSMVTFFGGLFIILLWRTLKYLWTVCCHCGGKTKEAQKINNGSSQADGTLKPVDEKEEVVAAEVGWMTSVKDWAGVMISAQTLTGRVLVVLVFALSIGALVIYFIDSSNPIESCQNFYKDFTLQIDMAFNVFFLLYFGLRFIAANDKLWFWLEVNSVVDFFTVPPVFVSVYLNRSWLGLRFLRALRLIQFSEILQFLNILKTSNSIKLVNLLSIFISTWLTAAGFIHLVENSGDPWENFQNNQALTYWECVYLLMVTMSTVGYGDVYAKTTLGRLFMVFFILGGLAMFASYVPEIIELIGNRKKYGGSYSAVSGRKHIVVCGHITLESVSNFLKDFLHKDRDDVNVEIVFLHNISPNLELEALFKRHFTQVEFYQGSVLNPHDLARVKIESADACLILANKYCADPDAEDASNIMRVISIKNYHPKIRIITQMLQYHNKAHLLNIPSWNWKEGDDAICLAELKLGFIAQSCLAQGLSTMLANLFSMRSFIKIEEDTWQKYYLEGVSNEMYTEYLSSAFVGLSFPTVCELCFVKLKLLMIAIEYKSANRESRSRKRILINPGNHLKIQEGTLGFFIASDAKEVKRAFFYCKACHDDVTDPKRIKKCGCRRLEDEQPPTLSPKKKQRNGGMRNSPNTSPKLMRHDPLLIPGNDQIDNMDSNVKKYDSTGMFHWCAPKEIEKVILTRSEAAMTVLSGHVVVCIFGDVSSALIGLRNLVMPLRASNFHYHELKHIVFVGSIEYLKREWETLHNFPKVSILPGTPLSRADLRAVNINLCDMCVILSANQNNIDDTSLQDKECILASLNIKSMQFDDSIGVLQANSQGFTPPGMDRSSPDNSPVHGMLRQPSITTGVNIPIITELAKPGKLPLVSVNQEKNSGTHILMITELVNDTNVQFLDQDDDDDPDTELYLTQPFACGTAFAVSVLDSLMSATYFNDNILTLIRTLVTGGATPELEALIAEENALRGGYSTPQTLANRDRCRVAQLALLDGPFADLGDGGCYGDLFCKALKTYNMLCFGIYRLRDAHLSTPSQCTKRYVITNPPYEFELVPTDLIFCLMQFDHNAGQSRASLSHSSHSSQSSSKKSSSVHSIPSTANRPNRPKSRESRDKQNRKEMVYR
For assay [5], the target named is T5, mSlo1/β4(N123R) channel (mouse | human, UniProt Q08460 1-1209; Q86W47 1-210, N123R). As to the kind of experiment: cell-based or functional assay.
Assay [6] addresses T6, mSlo1/β4(N123A) channel (mouse | human, UniProt Q08460 1-1209; Q86W47 1-210, N123A). Nature of the assay: cell-based or functional assay.
Assay [7] deals with T1, mSlo1/β4(N123K) channel. As to the kind of experiment: patch-clamp electrophysiology (time course of current block); outside-out patches of transfected HEK293 cells perfused with 1 μM ChTX; steps to +100 mV, intracellular 10 μM Ca2+; τon and τoff fitted to a first order bimolecular reaction scheme; KD = [ChTX]/((τoff/τon) − 1). The conditions noted are these: one partner purified. For orientation: Patch clamp records ionic current or voltage across a cell membrane.

In assay [8] the target is T2, mSlo1/β4(N123E) channel. The description is as above. The conditions noted are these: one partner purified.
Assay [9] deals with T3, mSlo1/β4 channel. The assay is described as above. The conditions noted are these: one partner purified.
Assay [10] deals with T7, mSlo1/β4(N123I) channel (mouse | human, UniProt Q08460 1-1209; Q86W47 1-210, N123I).
T7 construct: mSlo1, BK channel α subunit (KCNMA1) of mouse, full-length cDNA, GenBank HQ221747.1; human BK channel β4 subunit (KCNMB4), full-length cDNA, GenBank AF207992.1; source: HEK293, transiently co-transfected (pcDNA3.1(+)), in excised membrane patches; copies: 4 + 4
The description is as above. The conditions noted are these: one partner purified.

Assay [11] concerns the target T8, mSlo1 channel (BKα subunit of mouse, alone) (mouse, UniProt Q08460 1-1209).
T8 construct: mSlo1, BK channel α subunit (KCNMA1) of mouse, full-length cDNA, GenBank HQ221747.1; tetrameric Slo1; also called mSlo1 alone channel; source: HEK293, transiently transfected (pcDNA3.1(+)), in excised membrane patches
Described as above. The conditions noted are these: one partner purified.

Assay [12] addresses T9, mSlo1/β4(H101Y) channel (mouse | human, UniProt Q08460 1-1209; Q86W47 1-210, H101Y).
T9 construct: mSlo1, BK channel α subunit (KCNMA1) of mouse, full-length cDNA, GenBank HQ221747.1; human BK channel β4 subunit (KCNMB4), full-length cDNA, GenBank AF207992.1; source: HEK293, transiently co-transfected (pcDNA3.1(+)), in excised membrane patches; copies: 4 + 4
The assay is described as above. The note with it: one partner purified.

Assay [13] deals with T10, mSlo1/β4(N123F) channel (mouse | human, UniProt Q08460 1-1209; Q86W47 1-210, N123F).
T10 construct: mSlo1, BK channel α subunit (KCNMA1) of mouse, full-length cDNA, GenBank HQ221747.1; human BK channel β4 subunit (KCNMB4), full-length cDNA, GenBank AF207992.1; source: HEK293, transiently co-transfected (pcDNA3.1(+)), in excised membrane patches; copies: 4 + 4
Described as above. The note with it: one partner purified.

Assay [14] concerns the target T11, mSlo1/β4(N123V) channel (mouse | human, UniProt Q08460 1-1209; Q86W47 1-210, N123V).
T11 construct: mSlo1, BK channel α subunit (KCNMA1) of mouse, full-length cDNA, GenBank HQ221747.1; human BK channel β4 subunit (KCNMB4), full-length cDNA, GenBank AF207992.1; source: HEK293, transiently co-transfected (pcDNA3.1(+)), in excised membrane patches; copies: 4 + 4
The description is as above. The note with it: one partner purified.

For assay [15], the target named is T12, mSlo1/β4(N123L) channel (mouse | human, UniProt Q08460 1-1209; Q86W47 1-210, N123L).
T12 construct: mSlo1, BK channel α subunit (KCNMA1) of mouse, full-length cDNA, GenBank HQ221747.1; human BK channel β4 subunit (KCNMB4), full-length cDNA, GenBank AF207992.1; source: HEK293, transiently co-transfected (pcDNA3.1(+)), in excised membrane patches; copies: 4 + 4
The assay is described as above. The conditions noted are these: one partner purified.

Assay [16] deals with T13, mSlo1/β4(N123Y) channel (mouse | human, UniProt Q08460 1-1209; Q86W47 1-210, N123Y).
T13 construct: mSlo1, BK channel α subunit (KCNMA1) of mouse, full-length cDNA, GenBank HQ221747.1; human BK channel β4 subunit (KCNMB4), full-length cDNA, GenBank AF207992.1; source: HEK293, transiently co-transfected (pcDNA3.1(+)), in excised membrane patches; copies: 4 + 4
Described as above. The conditions noted are these: one partner purified.

The target in assay [17] is T4, mSlo1/β4(N123D) channel. The description is as above. The conditions noted are these: one partner purified.
The target in assay [18] is T5, mSlo1/β4(N123R) channel. Described as above. The note with it: one partner purified.
Assay [19] has as its target T6, mSlo1/β4(N123A) channel. The description is as above. The conditions noted are these: one partner purified.
Assay [20] has as its target mSlo1 channel (BKα subunit of mouse, alone) (mouse) (UniProt Q08460).

The record followed here is article PMC5854672, “Solution structure of extracellular loop of human β4 subunit of BK channel and its biological implication on ChTX sensitivity” (Scientific Reports, 2018).

T8 sequence (Q08460 whole entry): as the sequence (Q08460 whole entry, stated change not applied, one chain of several) above
T2 sequence (Q08460 whole entry, stated change not applied, one chain of several): as above
T3 sequence (Q08460 whole entry, one chain of several): as the sequence (Q08460 whole entry, stated change not applied, one chain of several) above
mSlo1 channel (BKα subunit of mouse, alone) (mouse), sequence (Q08460 whole entry): as the sequence (Q08460 whole entry, stated change not applied, one chain of several) above

B1: Charybdotoxin (peptide)
chain: QFTNVSCTTSKECWSVCQRLHNTSRGKCMNKKCRCYS
notes: charybdotoxin (ChTX), scorpion toxin; also called ChTX; source: bought: Sigma-Aldrich (Art. No. C7802)
The Kd is a measure of binding affinity in units of concentration. Read a high Kd as a looser complex. Consider B1, for which the “inhibition of channel currents by 1 μM ChTX (outside-out patches, HEK293)” value is 89.1% in [1]; 96% in assay [2]; 22.2% in assay [3]; 46.9% in assay [4]; 36.4% in assay [5]; about 90% in assay [6]. For the same molecule, the equilibrium dissociation constant (Kd) in assay [7] stood at 0.0443 µM; in [8], 0.0808 µM; in assay [10], 0.119 µM; in assay [11] it was 0.193 µM; in assay [12], 0.325 µM; in assay [13] it was 0.0471 µM. Moreover, the Kd came to 0.0618 µM in [14]; 0.0419 µM in assay [15]; 0.291 µM in [16]; 0.0726 µM in assay [17]; 0.329 µM in [18]; 0.0968 µM in assay [19]. Also, the τoff worked out at 314 s in [7]; 138 s in [8]; 38.5 s in [10]; 21.6 s in [11]; 32.6 s in assay [12]; 670 s in assay [13]. The τoff was 53.3 s in assay [14]; 171 s in assay [15]; 26.2 s in assay [16]; 624 s in [17]; 85.3 s in [18]; 816 s in assay [19]. The “τon (block at 1 μM ChTX)” value in [7] came to 13.3 s; in assay [8] it was 10.3 s; in assay [9], 60.9 s; in assay [10] it was 4.1 s; in assay [11], 3.5 s; in assay [12], 8 s. The “τon (block at 1 μM ChTX)” value was 30.1 s in assay [13]; 3.1 s in assay [14]; 6.9 s in assay [15]; 5.9 s in assay [16]; 42.2 s in assay [17]; 21.1 s in assay [18]. Moreover, the “τon (block at 1 μM ChTX)” value in [19] was determined as 72 s.

B2: human β4 subunit of BK channel, full length (natural protein)
chain: MAKLRVAYEYTEAEDKSIRLGLFLIISGVVSLFIFGFCWLSPALQDLQATEANCTVLSVQQIGEVFECTFTCGADCRGTSQYPCVQVYVNNSESNSRALLHSDEHQLLTNPKCSYIPPCKRENQKNLESVMNWQQYWKDEIGSQPFTCYFNQHQRPDDVLLHRTHDEIVLLHCFLWPLVTFVVGVLIVVLTICAKSLAVKAEAMKKRKFS
Take B2: in assay [20], the thermodynamic double-mutant cycle on V1/2 of G-V curves (inside-out patches, 10 μM Ca2+): mSlo1(E264A) against β4(N123A), ΔΔV is -42.4 mV.
